Test system: adult hippocampus-derived neural progenitor cells
Assay: in vitro differentiation analysis of neural progenitor cells (immunocytochemistry for lineage markers)
Assay type: cell-based, rat
Experimental: The neural progenitor cells isolated from the hippocampus of female Fischer 344 used in this study have been characterized previously (Gage et al., 1995; Palmer et al., 1997). The whole brain-derived neural stem cells from PIO ICR mice were isolated and cultured according to the methods as described, with slight modifications. Cells were cultured as previously described (Gage et al., 1995; Ray et al., 1993). Cells between passages 10 and 20 were used for in vitro differentiation analyses. To induce differentiation, cells were plated into 4-well chamber slides at a density of 55,000-75,000 cells per well and were allowed to proliferate in N2-supplemented (Invitrogen) DMEM:F12 (Omega Scientific) medium containing 20 ng/ml FGF-2 (PeproTech, Inc.) for 24 hours. FGF-2 was then withdrawn and cells were subsequently treated with differentiation media. […] For IGF-induction experiments, cells were trypsinized, washed with 1× PBS, and plated into insulin-free N2 medium. […] In some cultures, BrdU (2.5 μM, Sigma) was added to label dividing cells, and Q-VD-OPh (2 μM, Enzyme Systems Products) was added to prevent apoptosis.
Cells were fixed with 4% paraformaldehyde, followed by immunocytochemical staining as described (Palmer et al., 1999). Labeled cells were visualized using a Nikon E800 upright microscope or a Nikon E600 inverted microscope (Nikon Inc.) and a Spot RT CCD camera (Diagnostic Instruments Inc.). 4′,6-diamidino-2-phenylindole (DAPI) was used to identify individual cells. Quantification of cell phenotypes was with StereoInvestigator (MicroBrightfield Inc.); for each marker, 500-1000 cells were sampled systematically from standardized fields at 40×magnification. For quantification of live/dead cells, images were taken of cultures live-stained with propidum iodide (1 μg/ml; Molecular Probes) and Hoescht 33342 (1 μg/ml; Sigma) at 10×magnification, and cells were counted using Image-Pro (Media Cybernetics). The following primary antibodies were used: rabbit anti-Tuj1 (1:7500;Covance), mouse anti-RIP (1:25-1:75; Hybridoma Bank); guinea pig anti-GFAP (1:500-1:2500; Advanced Immunochemical, Inc.); rabbit anti-MBP (1:500; Chemicon International Inc.), rat anti-BrdU (1:400; Accurate). Secondary antibodies were all from Jackson ImmunoResearch and used at 1:250 dilution. The detection of BrdU in cultured cells required treatment in 2 N HCL at 37° C. for 30 min (Palmer et al., 1999). All experiments were independently replicated at least 3 times.

B1: Noggin: extracellular protein that binds BMP ligands, BMP antagonist (protein, UniProt Q13253 28-232, looked up)
Noggin: QHYLHIRPAPSDNLPLVDLIEHPDPIFDPKEKDLNETLLRSLLGGHYDPGFMATSPPEDRPGGGGGAAGGAEDLAELDQLLRQRPSGAMPSEIKGLEFSEGLAQGKKQRLSKKLRRKLQMWLWSQTFCPVLYAWNDLGSRFWPRYVKVGSCFSKRSCSVPEGMVCKPSKSVHLTVLRWRCQRRGGQRCGWIPIQYPIISECKCSC
Question: How did the “differentiation or survival effects of Noggin alone” value (500 ng/ml Noggin alone, insulin-free media) turn out when B1 was run?
Answer: The value was “did not display any enhanced differentiation or survival effects”.

Question: What about the “reversal of BMP2 inhibition of oligodendrocyte differentiation” value (Noggin 500 ng/ml with BMP2 50 ng/ml and IGF-I 500 ng/ml) of the same molecule?
Answer: Its value is “efficiently reversed the inhibitory effects of BMP signaling”.

Question: And the “percentage of oligodendrocytes vs IGF-I alone” value (Noggin 500 ng/ml with IGF-I 20-100 ng/ml)?
Answer: Its value is “significant increase in the percentage of oligodendrocytes”.

Question: What about the “percentage of RIP+ oligodendrocytes vs IGF-I alone” value (Noggin 500 ng/ml with IGF-I 500-1000 ng/ml) of the same molecule?
Answer: Its value is “did not result in a significant change”.
